{"source": "the DeepSol protein solubility set", "data": [{"test": "soluble on expression in E. coli; label from the status in PepcDB or PDB records", "values": [{"sequence": "MGSDKIHHHHHHMTATASSSPKLRVDTRGTNELPPHLDENLLTPRFYVTEFKKAAKTELTDAREEFEAMLSEMKADYNCTHFDRKASLDRLQELPQKAKETYESYLVRSVISEFSGFLLFKEISNRLKKEGNRDLGKLFQFLARDEARHAGFLSRALVAEGIEVDLPHLGGKRAATWFPISWVIYSVYLSEKIGYWRYILMDRHLKANPDQAFAPLFDFFEPWCQDENRHGDCFTVMMRCWPGITKGFRGKLLSRFFLWSVFLTHTLTVCERGEFYELLGIDPKEFDEEVIKRTNHTSKNAFPWVFNLDDNKFWDLRNKIIESFRAFVGAKGLTKPVKFVKFATLIFKQFALPMEKTDALRYDKNVNFTGQDILNFWTDK", "soluble on expression in E. coli": "not soluble"}, {"sequence": "MSLLVQFDEFKGHSHEQFMEELDTIMLVSINKLHDNMDLRRRLLIYSVFGKVFQHRKMGILAPHGQEETF", "soluble on expression in E. coli": "not soluble"}, {"sequence": "MSLQLADAQADLPYIHGFSAAEQARLVRQARFSEAMVYRDVDFSGVQKLLEVGCGVGAQTEILLRRFPDVGITGLDFSQRQLAVARQRLQGSPYHDRATLLHMDAEDLDFPPASFDGAFLCWILEHVHSPERVLAEVRRVLKPGARLYATEAMNATFFLAPYSANLQQYWLAFNDHQLSVGGDPFVGAKLGNILMRLGFRHVETKVKTWHLDSREPHRRQQVLDYWAELLLSAADQLIEAGRVDAELVDSMTRELRLLRSNPELVFFYSFMQASAVVEGHHHHHH", "soluble on expression in E. coli": "soluble"}, {"sequence": "MSRVCVFFLLSFIFSVHADPKVVNLFRVTSLGSLTISVESGGKIFLASGDDNQYLKNIQLTTGTTTITLDKLNDLNDDGSPKFITAAGSVILQTSNNDTTTSRLSGYIYVTTYLQAQDPTFSVYVLKTTQSISKMGMKSTVVVLNTVLRQELIDYDMPRAISYVTKIDHSPNTNLYFQWDIPASNWNDVTNNTFFRNPIELKNGTGPHFKVFFDNIEPLQIGLNYWYITSMGPFNLFLENKYVSDHSYTTTAVNTTGIIVGKSFYADRVVNFQSDTSRSSASGFFDSAYITDDLTIKLQFVGASFSNTLRKESETQNYAWSPAAPVNLTVTSTSTLPGTFYIQYFAFAGDLQPLTSTVATSLMLQTSTTTVASTAVTTSRIITTTKGSSSNCGVHILISLLLSMVFC", "soluble on expression in E. coli": "not soluble"}, {"sequence": "MHFYKYGVLIDQLRDSFEWRVAFLDGSVSDHCCITVPSEKFNFPPTPGATVKAKFEHANSFLPSLVAQCGSFEWFRDVTVVNSKVVIFAIVHFSNECLERDPFKINGMDYSIIENENTDFQKIVLPTRVLQTSITSRSNLQNTDTPFIYRIGVCWEPISFENGVTVNWRYYADFPITPIFELYYRETTLPYIAESMVYGVLEGVVIAENDHGALFWTPKMGCAILPSTSLDTPMPSLGSVHVILVKRCIPENSFGFSCSYELLSSFRSTEWPNLKVITDQITRKVYIEANASCRSMMENQDFPSMNVPHIGKVFRGLQQYRDKLSAGHLYDFRMEFQKEEGSFVPTIVDLCLEEDEMVDCRVVYISNETSTYFAVLDPSSNSFDRFKQSIDYIAIPFRVLFCANGVHVKNEELLLNSYKVRVRVPRNRHDVVNAIHVEHVIQSPKDPAYFITNGSVWLRTTVKFQNASRYELLCPLLEQKIIDVNGVTAAMSLTQEFTVHAQFVLMERNVPVFVVRQLASTVREHPRTTNYPSRSLNLSYEVSGALARTNPNGQLSAADNNIVLINDSISLDHNLPDTGEYPTILNESSFERQLLFDNQSIADSASTSGDFILTESVYESSSAASTCTVIDRNDARFSALNDDSNILISESWLDSTNQHSETTMDTPEIITESFYESTHDQASSRASTVDRLASDVDKISIGRPDYSPPPRRRIFGYSTPGDRVRPRNSYGSSSSGSLNGRPKRRAPYGFRQIRNITPHNVLLRDIIYNNINNRKMFVEQNKNAILKCWNRLPLAQVTRTKKIFCTVIAVESIKFPPSFDDTCIKGLVRFAVVYDDMNVKNTSVVVPIGGNFNNLPKSFQLGDAYKVFHFSSYKDLICRIGGFSHGLNGELSRVAPVNCISNPETVNGRYGQRYLRCTVNAARPAISEIESDVFELWTVHGLPGFIIVEKVPLLMNHLNKEPINPDVHHQHMYTCIIEPLAGGPVEASILKDVKEGEDICIFWRLVVEFSDTVPLPRLKEKTDKVVPQIRTEPVQSGTFSVDDYGCWETLRINSILAQEKLDRMRAVGDPRVKMIDGPDLRPEIEVRKVDVNTRREKMFAAFDALLEKLPQLHSEGILGYVLEDDLRVKIKKLTPMNDNNHKFTFTFRNGSLEIGVNYLTDMLTRGKIYKVMNEMKKHVPLLKVLSDCIGLNTTYIKKTDAVKMMLHYMYRNELHTYL", "soluble on expression in E. coli": "not soluble"}, {"sequence": "MGSSHHHHHHSSGLVPRGSHMRIAIVVPYLAKVEGNKIALILASKLAKNNEVFVVSYAVKDSIIDEVNSLISPAKFFYQKAISNGRYGIRFAIKYQLLKGVDRKMANLLKALMPLDIYLVISNEGHWIPIYFDKAYGTKSALVVMELHDHGFISAGNDPLRFPILRTVLASPAYGLAKVIEYKRFKSFDILFANSKWTQIVFQYLYGLPVSGILFGIDTEVFKPTPSKFSEMNFIAVPTISLKKDYYGRRLISKLAKDGIPLLSYGPIKIEGVKHLGYLSQDEMVKILSAAKATLFLFNYEALGLIPFESLACGTPVITYPKQGPLVELSDNPNVIYFREYEELLKNCRLHLNSAKDEMTINKCRESVLKYDISKVSVDVEQLFQTIIFNKNKS", "soluble on expression in E. coli": "soluble"}, {"sequence": "MQVSKRKSLCKICGNPAFGNHFGVLSCRACAAFFRRTNVDGETFCPIGNCKIDKHGKFYCKKCRLRICLEAGMDANKFQHDRDLISTSTSESSDSSGSFSFSQRSKVPKSMANFLGRPAFILSCEPDKASKVKTIVDVTFLINQAFDIFGNVDRKRFSSNSNLGRMTKKFEDLQNEKSSNLSTIKVLGLKESMIFWEQDFLRTARWLSHFDEFQELPLSIRMQILKVAWILWGRLDKLVKTANERKNQQLNQNFYMIGKDVGIDIGNFEVDVSWCTNYSKEQLAYYLDCHHDEPFNIIVDAISDLKPSDMELNFMLLELCLAHAGKQHQGDVLMFTDRLLEVVSNELHDYYQSEQISNYSSRITKMMKINNLIRRNLFERLERQAVAKVFNIISVHFSHPDMFCNAGF", "soluble on expression in E. coli": "not soluble"}, {"sequence": "MSYRQMLIHRCDIYHEAAQAPSAGRFGIPADRLQPVISYPDTPDEQDVPCYFTEKTQQLIQEEPDQTVYHSFLVHFPLSADIRVNDKIIWENHKYILKLPKRIRHHHWEVVAVRDESLLEHHHHHH", "soluble on expression in E. coli": "soluble"}, {"sequence": "MAHHHHHHMLTLNRRDKEICQELIRKNFTLSQIQSYNEPEYSGWVSRRRRVSNIFVWELNWLATSGNYLLCFSQKKDSCHPIKIMYLPEAIIRRCSMKEECCVGHPFVLEIVPCLHFVREEKGLFPVKPHEVHFSFENVEDLCGTIAFLAKISARHVRTASITFGPPTRVNHRIHLRAARGKNDFGLELLPLPMREWLLRQGITCAEMAGNETTALNCATTLYEVQMQRGMLEDLPPISEEGVTEKRYEDKAGVPPFPLPSENEGGALEPLLSAGDPESLFSDWERLDGGSQGEVFKAVRVVDGRKVAIKRITVRGDHKVPQSLVKEMSLLKALHHPNIVTLYDCYRKGKHLFLAMELMDGGKLTDLLIPSEGEPVEFTEAQLATLIREVLRALRCLHNARCVHRDVKSDNVLLSSNGEVKLGDFGFATLLTSPGGMRRTLVGTPYWMAPEVAGGKAYNDKADVWSAGILFLEMCDGQPPLMGMNPMRALLTVSTGPPPVMRTANRWSSLCREFASFLLVKDPARRPSVDDALRHPFIVKKAEPTCRFVATILQRRK", "soluble on expression in E. coli": "soluble"}, {"sequence": "NSESKSTPKRLHVSNIPFRFRDPDLRQMFGQFGKILDVEIIFNERGSKGFGFVTFENSADADRAREKLHGTVVEGRKIEVNNATARVMTN", "soluble on expression in E. coli": "soluble"}, {"sequence": "MGLLIDGVWHDQWYDTKSTGGSFKRQDAKFRNWITHDGSAGPSGTGGFTPDSGRYHLYISHACPWAHRTMIFRTLKGLEDHITISAVHPDMLGEGWTFEPDDNGATGDTLYNSAFARDIYTRADPRFTGRVTVPILWDKQRETIVSNESSEIIRMFNAAFNGLTGNSDDYWPEPLRDAIAPVNERIYDTFNNGVYKAGFATTQQAYDAAIVPLFDTLDWLEERLSHNRYLMGDQLTEADWRLFTTLVRFDPVYHLHFKCNRKRIVDYPNLWGYTRELYQTPGVADTVNFDHIVRHYHYSHETINPNRIIPINPVLDFHRPHGRGLEHHHHHH", "soluble on expression in E. coli": "soluble"}, {"sequence": "MAAQQRDCGGAAQLAGPAAEADPLGRFTCPVCLEVYEKPVQVPCGHVFCSACLQECLKPKKPVCGVCRSALAPGVRAVELERQIESTETSCHGCRKNFFLSKIRSHVATCSKYQNYIMEGVKATIKDASLQPRNVPNRYTFPCPYCPEKNFDQEGLVEHCKLFHSTDTKSVVCPICASMPWGDPNYRSANFREHIQRRHRFSYDTFVDYDVDEEDMMNQVLQRSIIDQ", "soluble on expression in E. coli": "soluble"}]}]}
